± gives the standard error. This sample holds only a part of the variants without activity.
B1: glmS ribozyme (parent)
chain: AUAAAAGCGCCAGAACUACAGAAAUGUAGUUGACGAGGAGGAGGUUUAUCGAAUUUUCGGCGGAUGCCUCCAAA

Variants of: B1
Assay: self-cleavage kobs at 2500 uM GlcN6P; higher = faster cleavage; RNA array
Details: with glucosamine-6-phosphate
Outline: (§1)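 Ribozyme variants carrying barcodes were transcribed in situ on sequenced MiSeq chips by E. coli RNA polymerase and tracked at 37 °C with a hybridised Cy3 probe. They were exposed to 40 μM to 10 mM glucosamine-6-phosphate in HEPES/KCl/Mg(OAc)2 buffer. kobs came from exponential decay fits of normalised per-tile medians, and kcat and KM from weighted Michaelis–Menten fits.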

Going from C8G C11A G13U A33U A36C U55C C58G C71G to A14G G41U U69A, the “self-cleavage kobs at 2500 uM GlcN6P” value rises from under 1e-05 s⁻¹ to 8.6e-05 ± 2e-05 s⁻¹.

G7C G13A A52U G66C and A6G A14C G40C A53U G60C cannot be ordered by “self-cleavage kobs at 2500 uM GlcN6P” value: under 1e-05 s⁻¹ for the first, under 1e-05 s⁻¹ for the second.

A14U C50A C71A and C10A U47G G59U C68U are within error of each other in “self-cleavage kobs at 2500 uM GlcN6P” value: 4.46e-05 ± 2.1e-05 s⁻¹ for the first, 5.63e-05 ± 1.7e-05 s⁻¹ for the second.

Compared with C16A G29U C68U C71U, C11U U49C U56G is lower in “self-cleavage kobs at 2500 uM GlcN6P” value: 6.71e-05 ± 2.1e-05 s⁻¹ for the first, under 1e-05 s⁻¹ for the second.

Going from G13U U45A U46A C58U to C10G A14C U30G G43A, the “self-cleavage kobs at 2500 uM GlcN6P” value falls from 6.89e-05 ± 3.4e-05 s⁻¹ to under 1e-05 s⁻¹.

Going from C11A C16U C71U to C10G C11G A36C G38C A53C G60U, the “self-cleavage kobs at 2500 uM GlcN6P” value falls from 0.000223 ± 5.3e-05 s⁻¹ to under 1e-05 s⁻¹.

G13A U30C G59A and A15U G44U C71U cannot be ordered by “self-cleavage kobs at 2500 uM GlcN6P” value: under 1e-05 s⁻¹ for the first, under 1e-05 s⁻¹ for the second.

C8A A33C G40A U47G and C11G G13A C16G G29C G37C A53G cannot be ordered by “self-cleavage kobs at 2500 uM GlcN6P” value: under 1e-05 s⁻¹ for the first, under 1e-05 s⁻¹ for the second.

First: C11G C50U C61U C70G
Second: G7U C11A A14C A15C A33C U46G A48G C61U C67A
The “self-cleavage kobs at 2500 uM GlcN6P” value of the first is higher: 0.000127 ± 3.7e-05 s⁻¹ for the first, under 1e-05 s⁻¹ for the second.

A6U G13A U49C and C10G C16G G32C A42U G60U cannot be ordered by “self-cleavage kobs at 2500 uM GlcN6P” value: under 1e-05 s⁻¹ for the first, under 1e-05 s⁻¹ for the second.

C16A A36C U49A U65G and A14G C34A U55G C70A cannot be ordered by “self-cleavage kobs at 2500 uM GlcN6P” value: under 1e-05 s⁻¹ for the first, under 1e-05 s⁻¹ for the second.

First: G7U C16U U46A
Second: A15G U30A G44U U45A
The “self-cleavage kobs at 2500 uM GlcN6P” value of the first is lower: under 1e-05 s⁻¹ for the first, 0.000178 ± 5.5e-05 s⁻¹ for the second.

G7U G9U U56A G59U and A6C G7C C10U G29C C58G cannot be ordered by “self-cleavage kobs at 2500 uM GlcN6P” value: under 1e-05 s⁻¹ for the first, under 1e-05 s⁻¹ for the second.

G9C A52U C58U and G7C A53G C70A cannot be ordered by “self-cleavage kobs at 2500 uM GlcN6P” value: under 1e-05 s⁻¹ for the first, under 1e-05 s⁻¹ for the second.

C8G A15G U30C A42G U45A U46G and A12U G29C A36U G44U C61G cannot be ordered by “self-cleavage kobs at 2500 uM GlcN6P” value: under 1e-05 s⁻¹ for the first, under 1e-05 s⁻¹ for the second.

Compared with G9U C16A U30G, A12U A39U G40A is higher in “self-cleavage kobs at 2500 uM GlcN6P” value: under 1e-05 s⁻¹ for the first, 0.00415 ± 0.0015 s⁻¹ for the second.

A14U G29A G40U U45A C50G C71G and C8G U46G A48U U55G G66U C70U cannot be ordered by “self-cleavage kobs at 2500 uM GlcN6P” value: under 1e-05 s⁻¹ for the first, under 1e-05 s⁻¹ for the second.

Compared with A14G U55G C68A, C8U A39U C67G is lower in “self-cleavage kobs at 2500 uM GlcN6P” value: 0.000208 ± 5.1e-05 s⁻¹ for the first, under 1e-05 s⁻¹ for the second.

C8U G32U U45C and C8A G41A U65C cannot be ordered by “self-cleavage kobs at 2500 uM GlcN6P” value: under 1e-05 s⁻¹ for the first, under 1e-05 s⁻¹ for the second.

Going from C8U A42G G43U U49G to C16A G32U U55G, the “self-cleavage kobs at 2500 uM GlcN6P” value rises from under 1e-05 s⁻¹ to 0.000117 ± 3.5e-05 s⁻¹.

G9C G40U G41U U45G and A15G G35A U46C A53C cannot be ordered by “self-cleavage kobs at 2500 uM GlcN6P” value: under 1e-05 s⁻¹ for the first, under 1e-05 s⁻¹ for the second.

Compared with C11U A48U G60U, A14G A15C C71A is higher in “self-cleavage kobs at 2500 uM GlcN6P” value: under 1e-05 s⁻¹ for the first, 0.00262 ± 0.00058 s⁻¹ for the second.

G7A G32U C58U C67U and C11U G29C G44U G63U U65C C67U C71U cannot be ordered by “self-cleavage kobs at 2500 uM GlcN6P” value: under 1e-05 s⁻¹ for the first, under 1e-05 s⁻¹ for the second.

A12U G51A G60U and G9A G37C G38C cannot be ordered by “self-cleavage kobs at 2500 uM GlcN6P” value: under 1e-05 s⁻¹ for the first, under 1e-05 s⁻¹ for the second.

Going from C11A A14U C71U to A12G C16U C67U, the “self-cleavage kobs at 2500 uM GlcN6P” value rises from 6.69e-05 ± 2.1e-05 s⁻¹ to 0.000252 ± 5.2e-05 s⁻¹ (3.8-fold).

G13U A39C A48C and C10U G13U A64C cannot be ordered by “self-cleavage kobs at 2500 uM GlcN6P” value: under 1e-05 s⁻¹ for the first, under 1e-05 s⁻¹ for the second.

First: A6U A12U U55A
Second: A12G C68A C71A
The “self-cleavage kobs at 2500 uM GlcN6P” value of the first is higher: 0.000377 ± 9.2e-05 s⁻¹ for the first, under 1e-05 s⁻¹ for the second.

Going from A52G U55G G63U to G7U A52G G60C C67G, the “self-cleavage kobs at 2500 uM GlcN6P” value falls from 0.000758 ± 0.0003 s⁻¹ to under 1e-05 s⁻¹.

Going from A12U G40A A53C to C10A U54C, the “self-cleavage kobs at 2500 uM GlcN6P” value falls from 0.00179 ± 0.00063 s⁻¹ to under 1e-05 s⁻¹.

G7U A39U C50A and C8U G29U A36U cannot be ordered by “self-cleavage kobs at 2500 uM GlcN6P” value: under 1e-05 s⁻¹ for the first, under 1e-05 s⁻¹ for the second.

C11U U31C C50U and G7C G29U G35U cannot be ordered by “self-cleavage kobs at 2500 uM GlcN6P” value: under 1e-05 s⁻¹ for the first, under 1e-05 s⁻¹ for the second.

A6G G38C G41U C68U and C11U G29A U49G G62A C67G cannot be ordered by “self-cleavage kobs at 2500 uM GlcN6P” value: under 1e-05 s⁻¹ for the first, under 1e-05 s⁻¹ for the second.

C16A G59U A64U C67G and A6G G41U U46G G60C cannot be ordered by “self-cleavage kobs at 2500 uM GlcN6P” value: under 1e-05 s⁻¹ for the first, under 1e-05 s⁻¹ for the second.

G9U A12U C68U and A12C A14G G40C U56G C68U cannot be ordered by “self-cleavage kobs at 2500 uM GlcN6P” value: under 1e-05 s⁻¹ for the first, under 1e-05 s⁻¹ for the second.

First: A6U C16G C71G
Second: A6C A12U U49A A53G U54A
The “self-cleavage kobs at 2500 uM GlcN6P” value of the first is higher: 0.000356 ± 0.00014 s⁻¹ for the first, under 1e-05 s⁻¹ for the second.

First: A12G A53C U56G
Second: A12U A33C G43A C67U
The “self-cleavage kobs at 2500 uM GlcN6P” value of the first is higher: 5.07e-05 ± 1.5e-05 s⁻¹ for the first, under 1e-05 s⁻¹ for the second.

Going from G7C C34A U46G G63C to C8A C50G U69G, the “self-cleavage kobs at 2500 uM GlcN6P” value rises from under 1e-05 s⁻¹ to 0.000345 ± 7.5e-05 s⁻¹.

Compared with A15U U45A U65G, A12G U45G U54G is 7-fold lower in “self-cleavage kobs at 2500 uM GlcN6P” value: 0.00134 ± 0.00059 s⁻¹ for the first, 0.000192 ± 5.5e-05 s⁻¹ for the second.

Compared with A14G G29C A39G, C10G C16U A33G G40C U47G U56G is lower in “self-cleavage kobs at 2500 uM GlcN6P” value: 0.000197 ± 9.1e-05 s⁻¹ for the first, under 1e-05 s⁻¹ for the second.

With A12G U45G C50A U57G the “self-cleavage kobs at 2500 uM GlcN6P” value was under 1e-05 s⁻¹.

Variants of: B1
Assay: self-cleavage kobs at 10000 uM GlcN6P; higher = faster cleavage; RNA array
Details: with glucosamine-6-phosphate
Outline: as §1

Going from A15U G44U C71U to C11G C50U C61U C70G, the “self-cleavage kobs at 10000 uM GlcN6P” value rises from under 1e-05 s⁻¹ to 3.43e-05 ± 1.4e-05 s⁻¹.

First: C16A G32U U55G
Second: C11A A14U C71U
The “self-cleavage kobs at 10000 uM GlcN6P” value of the first is 6.8-fold higher: 0.000315 ± 4.6e-05 s⁻¹ for the first, 4.6e-05 ± 1.3e-05 s⁻¹ for the second.

Going from A12U G40A A53C to A14G G29C A39G, the “self-cleavage kobs at 10000 uM GlcN6P” value falls from 0.00159 ± 0.00056 s⁻¹ to 0.000412 ± 7.6e-05 s⁻¹ (3.9-fold).

In the case of A12G U45G C50A U57G, the “self-cleavage kobs at 10000 uM GlcN6P” value is reported as under 1e-05 s⁻¹.

Variants of: B1
Assay: self-cleavage kobs at 640 uM GlcN6P; higher = faster cleavage; RNA array
Details: with glucosamine-6-phosphate
Outline: as §1

Going from C58G C68A to A52G U55G G63U, the “self-cleavage kobs at 640 uM GlcN6P” value falls from 0.000125 ± 3e-05 s⁻¹ to under 1e-05 s⁻¹.

From the supplement of paper PMC7125110
